The text below walks through data of article PMC3961559.

Like-named read-outs stand apart in the source and are kept apart here.

In data set [1] the target is T1, human alpha-thrombin (Homo sapiens, UniProt P00734;P00734 328-363;364-622). Kind of data set: competition.
Data set [2] addresses T1, human alpha-thrombin. The data set is described as follows: competition. This is another data set of the same source.

On to GGCGTAACTGATCGATCGT (ssDNA) [non-specific oligonucleotide], for which the binding result in data set [1] is listed as “no binding”.

For the molecule GGTTGGTGTGGTTGG (structured_DNA) [thrombin binding aptamer (TBA) oligo], in data set [2], the binding result is “binds”.
